Values quoted from earlier work, collected in patent US20250282866A1, “TREATMENT OF DISEASES RELATED TO ATP-BINDING CASSETTE TRANSPORTER 1 DYSFUNCTION USING TREM2 AGONISTS” (VIGIL NEUROSCIENCE, INC., priority 2020, published 2025).

T1: human TREM2 (Homo sapiens, UniProt Q9NZC2)
T1 sequence (Q9NZC2 19-230): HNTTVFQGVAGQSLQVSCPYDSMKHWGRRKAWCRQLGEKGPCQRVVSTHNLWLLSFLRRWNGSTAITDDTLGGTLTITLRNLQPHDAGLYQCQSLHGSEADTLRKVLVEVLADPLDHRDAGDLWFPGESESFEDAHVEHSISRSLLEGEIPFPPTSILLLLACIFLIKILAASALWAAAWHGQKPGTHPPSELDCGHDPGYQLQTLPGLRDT


Molecular target: T1, human TREM2
Details: for Binding Signal (fold over 6E7 Parental antibody) 1st screen 110 nM or 10 nM: values printed without asterisk, concentration 110 nM or 10 nM (footnote a not given)

Molecule	Binding Signal (fold over 6E7 Parental antibody) 1st screen 110 nM or 10 nM	Binding Signal (fold over 6E7 Parental antibody) 2nd screen 2 nM	Binding Signal (fold over 6E7 Parental antibody) 2nd screen 10 nM
V38: 6E7 variant: VH T30G, T58V; VL L54R, F94H (antibody, V domains shown) VH: EVQLVQSGAEVKKPGESLKISCKGSGYSFGSYWIAWVRQMPGKGLEWMGIIYPGDSDVRYSPSFQGQVTISADKSISTAYLQWSSLKASDTAMYFCARQRTFYYDSSDYFDYWGQGTLVTVSS VL: DIQMTQSPSSVSASVGDRVTITCRASQGISSWLAWYQQKPGKAPKLLIYAASSRQNGVPSRFSGSGSGTDFTLTISSLQPEDFATYFCQQADSHPRTFGQGTKLEIK	4.34 fold over 6E7 Parental antibod	3.44 fold over 6E7 Parental antibod	4.36 fold over 6E7 Parental antibod
V40: 6E7 variant: VH T30G, T58V, F110S; VL N56L, S93R (antibody, V domains shown) VH: EVQLVQSGAEVKKPGESLKISCKGSGYSFGSYWIAWVRQMPGKGLEWMGIIYPGDSDVRYSPSFQGQVTISADKSISTAYLQWSSLKASDTAMYFCARQRTFYYDSSDYSDYWGQGTLVTVSS VL: DIQMTQSPSSVSASVGDRVTITCRASQGISSWLAWYQQKPGKAPKLLIYAASSLQLGVPSRFSGSGSGTDFTLTISSLQPEDFATYFCQQADRFPRTFGQGTKLEIK	4.48 fold over 6E7 Parental antibod	3.41 fold over 6E7 Parental antibod	4.16 fold over 6E7 Parental antibod
V39: 6E7 variant: VH T30G, S61N, Q99G; VL Q55V, F94S (antibody, V domains shown) VH: EVQLVQSGAEVKKPGESLKISCKGSGYSFGSYWIAWVRQMPGKGLEWMGIIYPGDSDTRYNPSFQGQVTISADKSISTAYLQWSSLKASDTAMYFCARGRTFYYDSSDYFDYWGQGTLVTVSS VL: DIQMTQSPSSVSASVGDRVTITCRASQGISSWLAWYQQKPGKAPKLLIYAASSLVNGVPSRFSGSGSGTDFTLTISSLQPEDFATYFCQQADSSPRTFGQGTKLEIK	6.15 fold over 6E7 Parental antibod	5.11 fold over 6E7 Parental antibod	5.81 fold over 6E7 Parental antibod
V48: 6E7 variant: VH T30G, T58V, Q99M; VL N56T, F94L (antibody, V domains shown) VH: EVQLVQSGAEVKKPGESLKISCKGSGYSFGSYWIAWVRQMPGKGLEWMGIIYPGDSDVRYSPSFQGQVTISADKSISTAYLQWSSLKASDTAMYFCARMRTFYYDSSDYFDYWGQGTLVTVSS VL: DIQMTQSPSSVSASVGDRVTITCRASQGISSWLAWYQQKPGKAPKLLIYAASSLQTGVPSRFSGSGSGTDFTLTISSLQPEDFATYFCQQADSLPRTFGQGTKLEIK	2.42 fold over 6E7 Parental antibod	2.30 fold over 6E7 Parental antibod	2.54 fold over 6E7 Parental antibod

Results, then the molecule that gave them:

Binding Signal (fold over 6E7 Parental antibody) 1st screen 110 nM or 10 nM	Binding Signal (fold over 6E7 Parental antibody) 2nd screen 2 nM	Binding Signal (fold over 6E7 Parental antibody) 2nd screen 10 nM	Molecule
4.10 fold over 6E7 Parental antibod	3.39 fold over 6E7 Parental antibod	4.16 fold over 6E7 Parental antibod	V50: 6E7 variant: VH T30G, I50V, F110L; VL L54R, F94L (antibody, V domains shown) VH: EVQLVQSGAEVKKPGESLKISCKGSGYSFGSYWIAWVRQMPGKGLEWMGVIYPGDSDTRYSPSFQGQVTISADKSISTAYLQWSSLKASDTAMYFCARQRTFYYDSSDYLDYWGQGTLVTVSS VL: DIQMTQSPSSVSASVGDRVTITCRASQGISSWLAWYQQKPGKAPKLLIYAASSRQNGVPSRFSGSGSGTDFTLTISSLQPEDFATYFCQQADSLPRTFGQGTKLEIK
6.51 fold over 6E7 Parental antibod	5.02 fold over 6E7 Parental antibod	6.58 fold over 6E7 Parental antibod	V49: 6E7 variant: VH T30N, I50T, Y60L, Q99S; VL L54R, F94Y (antibody, V domains shown) VH: EVQLVQSGAEVKKPGESLKISCKGSGYSFNSYWIAWVRQMPGKGLEWMGTIYPGDSDTRLSPSFQGQVTISADKSISTAYLQWSSLKASDTAMYFCARSRTFYYDSSDYFDYWGQGTLVTVSS VL: DIQMTQSPSSVSASVGDRVTITCRASQGISSWLAWYQQKPGKAPKLLIYAASSRQNGVPSRFSGSGSGTDFTLTISSLQPEDFATYFCQQADSYPRTFGQGTKLEIK
3.26 fold over 6E7 Parental antibod	3.35 fold over 6E7 Parental antibod	3.63 fold over 6E7 Parental antibod	V60: 6E7 variant: VH S28H, T58V, F110S; VL N56R, Q89G (antibody, V domains shown) VH: EVQLVQSGAEVKKPGESLKISCKGSGYHFTSYWIAWVRQMPGKGLEWMGIIYPGDSDVRYSPSFQGQVTISADKSISTAYLQWSSLKASDTAMYFCARQRTFYYDSSDYSDYWGQGTLVTVSS VL: DIQMTQSPSSVSASVGDRVTITCRASQGISSWLAWYQQKPGKAPKLLIYAASSLQRGVPSRFSGSGSGTDFTLTISSLQPEDFATYFCGQADSFPRTFGQGTKLEIK
3.00 fold over 6E7 Parental antibod	1.78 fold over 6E7 Parental antibod	3.09 fold over 6E7 Parental antibod	V52: 6E7 variant: VH T30E, Q99G; VL N56R, S93R (antibody, V domains shown) VH: EVQLVQSGAEVKKPGESLKISCKGSGYSFESYWIAWVRQMPGKGLEWMGIIYPGDSDTRYSPSFQGQVTISADKSISTAYLQWSSLKASDTAMYFCARGRTFYYDSSDYFDYWGQGTLVTVSS VL: DIQMTQSPSSVSASVGDRVTITCRASQGISSWLAWYQQKPGKAPKLLIYAASSLQRGVPSRFSGSGSGTDFTLTISSLQPEDFATYFCQQADRFPRTFGQGTKLEIK
2.81 fold over 6E7 Parental antibod	1.83 fold over 6E7 Parental antibod	3.18 fold over 6E7 Parental antibod	V51: 6E7 variant: VH T58V, Q99G, Y112N; VL L54R (antibody, V domains shown) VH: EVQLVQSGAEVKKPGESLKISCKGSGYSFTSYWIAWVRQMPGKGLEWMGIIYPGDSDVRYSPSFQGQVTISADKSISTAYLQWSSLKASDTAMYFCARGRTFYYDSSDYFDNWGQGTLVTVSS VL: DIQMTQSPSSVSASVGDRVTITCRASQGISSWLAWYQQKPGKAPKLLIYAASSRQNGVPSRFSGSGSGTDFTLTISSLQPEDFATYFCQQADSFPRTFGQGTKLEIK
